# Measurements: patent US20240301429A1 (RSEM LIMITED PARTNERSHIP, published 2024)
# Where a chain is given by its changes, count along the chain named. In names and notes the source's numbering stands.
# T1: NRP1 trap AC (human, UniProt O14786 22-856)
# T1 construct: a1a2-b1b2-c with D320K (held in the entry); Signal peptide not trimmed
# T1 sequence: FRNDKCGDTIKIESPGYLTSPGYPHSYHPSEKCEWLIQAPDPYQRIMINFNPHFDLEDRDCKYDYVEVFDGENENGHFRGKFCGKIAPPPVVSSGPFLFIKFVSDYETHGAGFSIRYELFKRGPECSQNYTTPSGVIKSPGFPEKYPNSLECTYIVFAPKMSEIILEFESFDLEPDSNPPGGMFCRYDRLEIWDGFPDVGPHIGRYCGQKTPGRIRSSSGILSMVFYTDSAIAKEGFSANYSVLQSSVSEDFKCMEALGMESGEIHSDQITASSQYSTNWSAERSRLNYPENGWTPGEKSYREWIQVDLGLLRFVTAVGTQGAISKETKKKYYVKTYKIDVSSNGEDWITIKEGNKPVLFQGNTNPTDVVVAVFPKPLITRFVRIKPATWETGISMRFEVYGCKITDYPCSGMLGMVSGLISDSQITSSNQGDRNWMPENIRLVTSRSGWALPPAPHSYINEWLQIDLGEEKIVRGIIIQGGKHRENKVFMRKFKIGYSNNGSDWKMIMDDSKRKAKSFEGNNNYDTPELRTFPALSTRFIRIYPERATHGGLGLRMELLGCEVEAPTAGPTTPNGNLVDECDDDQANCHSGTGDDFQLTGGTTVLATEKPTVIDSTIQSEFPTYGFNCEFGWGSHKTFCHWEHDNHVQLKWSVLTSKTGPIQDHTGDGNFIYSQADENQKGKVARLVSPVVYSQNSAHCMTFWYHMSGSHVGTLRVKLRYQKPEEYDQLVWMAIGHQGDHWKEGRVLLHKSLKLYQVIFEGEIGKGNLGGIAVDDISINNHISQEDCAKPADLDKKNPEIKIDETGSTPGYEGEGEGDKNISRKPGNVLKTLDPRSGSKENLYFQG
# T2: NRP1 trap G (human, UniProt O14786 22-856)
# T2 construct: a1a2-b1b2-c; The mature trap lacks the signal peptide (about aa 1-21, may vary)
# T2 sequence: T1 sequence with K299D
# T3: NRP1 trap R (human, UniProt O14786 22-856)
# T3 construct: a1a2-b1b2-c with Y297A (the entry is the trap itself, so no substitution is applied)
# T3 sequence: T1 sequence with Y276A, K299D
# B1: SEMA3A-FC (R&D systems) (Fc fusion)
# chain: YQNGKNNVPRLKLSYKEMLESNNVITFNGLANSSSYHTFLLDEERSRLYVGAKDHIFSFDLVNIKDFQKIVWPVSYTRRDECKWAGKDILKECANFIKVLKAYNQTHLYACGTGAFHPICTYIEIGHHPEDNIFKLENSHFENGRGKSPYDPKLLTASLLIDGELYSGTAADFMGRDFAIFRTLGHHHPIRTEQHDSRWLNDPKFISAHLISESDNPEDDKVYFFFRENAIDGEHSGKATHARIGQICKNDFGGHRSLVNKWTTFLKARLICSVPGPNGIDTHFDELQDVFLMNFKDPKNPVVYGVFTTSSNIFKGSAVCMYSMSDVRRVFLGPYAHRDGPNYQWVPYQGRVPYPRPGTCPSKTFGGFDSTKDLPDDVITFARSHPAMYNPVFPMNNRPIVIKTDVNYQFTQIVVDRVDAEDGQYDVMFIGTDVGTVLKVVSIPKETWYDLEEVLLEEMTVFREPTAISAMELSTKQQQLYIGSTAGVAQLPLHRCDIYGKACAECCLARDPYCAWDGSACSRYFPTAKRRTRRQDIRNGDPLTHCSDLHHDNHHGHSPEERIIYGVENSSTFLECSPKSQRALVYWQFQRRNEERKEEIRVDDHIIRTDQGLLLRSLQQKDSGNYLCHAVEHGFIQTLLKVTLEVIDTEHLEELLHKDDDGDGSKTKEMSNSMTPSQKVWYRDFMQLINHPNLNTMDEFCEQVWKRDRKQRRQRPGHTPGNSNKWKHLQENKKGRNRRTHEFERAPRSV
# notes: Bought reagent; not shown: Fc portion of the bought fusion, detected with anti-human IgG
# B2: NRP1 trap X (receptor)
# chain: FRNDKCGDTIKIESPGYLTSPGYPHSYHPSEKCEWLIQAPDPYQRIMINFNPHFDLEDRDCKYDYVEVFDGENENGHFRGKFCGKIAPPPVVSSGPFLFIKFVSDYETHGAGFSIRYELFKRGPECSQNYTTPSGVIKSPGFPEKYPNSLECTYIVFAPKMSEIILEFESFDLEPDSNPPGGMFCRYDRLEIWDGFPDVGPHIGRYCGQKTPGRIRSSSGILSMVFYTDSAIAKEGFSANYSVLQSSVSEDFKCMEALGMESGEIHSDQITASSQASTNWSAERSRLNYPENGWTPGEDSYREWIQVDLGLLRFVTAVGTQGAISKETKKKYYVKTYKIDVSSNGEDWITIKEGNKPVLFQGNTNPTDVVVAVFPKPLITRFVRIKPATWETGISMRFEVYGCKITDYPEVEAPTAGPTTPNGNLVDECDDDQANCHSGTGDDFQLTGGTTVLATEKPTVIDSTIQSEFPTYGFNCEFGWGSHKTFCHWEHDNHVQLKWSVLTSKTGPIQDHTGDGNFIYSQADENQKGKVARLVSPVVYSQNSAHCMTFWYHMSGSHVGTLRVKLRYQKPEEYDQLVWMAIGHQGDHWKEGRVLLHKSLKLYQVIFEGEIGKGNLGGIAVDDISINNHISQEDCAKPADLDKKNPEIKIDETGSTPGYEGEGEGDKNISRKPGNVLKTLDPRSGSKENLYFQG
# notes: a1a2-b1-c with Y297A (held in the entry); Signal peptide not trimmed
# B3: NRP1 trap AF (receptor)
# chain: FRNDKCGDTIKIESPGYLTSPGYPHSYHPSEKCEWLIQAPDPYQRIMINFNPHFDLEDRDCKYDYVEVFDGENENGHFRGKFCGKIAPPPVVSSGPFLFIKFVSDYETHGAGFSIRYELFKRGPECSQNYTTPSGVIKSPGFPEKYPNSLECTYIVFAPKMSEIILEFESFDLEPDSNPPGGMFCRYDRLEIWDGFPDVGPHIGRYCGQKTPGRIRSSSGILSMVFYTDSAIAKEGFSANYSVLQSSVSEDFKKITDYPCSGMLGMVSGLISDSQITSSNQGDRNWMPENIRLVTSRSGWALPPAPHSYINEWLQIDLGEEKIVRGIIIQGGKHRENKVFMRKFKIGYSNNGSDWKMIMDDSKRKAKSFEGNNNYDTPELRTFPALSTRFIRIYPERATHGGLGLRMELLGCEVEAPTAGPTTPNGNLVDECDDDQANCHSGTGDDFQLTGGTTVLATEKPTVIDSTIQSEFPTYGFNCEFGWGSHKTFCHWEHDNHVQLKWSVLTSKTGPIQDHTGDGNFIYSQADENQKGKVARLVSPVVYSQNSAHCMTFWYHMSGSHVGTLRVKLRYQKPEEYDQLVWMAIGHQGDHWKEGRVLLHKSLKLYQVIFEGEIGKGNLGGIAVDDISINNHISQEDCAKPADLDKKNPEIKIDETGSTPGYEGEGEGDKNISRKPGNVLKTLDPRSGSKENLYFQG
# notes: a1a2b2c, deleted aa 281-430 and 857-923; The mature column prints 'About 22-429 and 431-856', against 1-280 and 431-856 in the column with signal peptide; Signal peptide not trimmed
# Key:
# Assay in all cases: saturation binding, trap coated on plate, SEMA3A-FC titrated, anti-human IgG-HRP chemiluminescence
# NRP1 trap AC = target: T1, NRP1 trap AC
# Experimental: (§1) Sema 3A and AP-VEGF₁₆₅ binding assays. Saturation curves for the determinations of KD of binding to SEMA 3A or VEGF165 were obtained as follow. Wells of high protein binding 96 well plates (Maxisorp, Nunc) were coated with purified traps diluted in PBS and blocked afterward with binding buffer (PBS containing 2% casein and 0.05% Tween 20). The SEMA3A-FC (R&D systems) or AP-VEGF165 ligands were diluted in binding buffer over an extensive range of concentrations and added to wells. Following an overnight incubation, wells were washed with PBS containing 0.05% tween. Bound SEMA3a-FC was detected using an HRP-linked anti-Human IgG (Biorad) and ECL substrate (Pierce). Alternatively, bound AP-VEGF165 was detected using CPD star substrate (Roche). The Chemiluminescent signal was acquired on a TECAN reader. Dissociation constant (KD) were determined by non-linear curve fitting using the Graph Pad prism software.
# NRP1 trap G = target: T2, NRP1 trap G
# Experimental: as §1
# NRP1 trap R = target: T3, NRP1 trap R
# Experimental: as §1
# SEMA3A-FC (R&D systems) = target: B1
# Experimental: as §1
Kd (NRP1 trap AC) [nM],Kd (NRP1 trap G) [nM],Kd (NRP1 trap R) [nM],binding result (SEMA3A-FC (R&D systems)),Binder
4,0.8,6.15,,B1
,,,no binding,B2
,,,no binding,B3
